{"source": "paper PMC8141534", "about": "(The Journal of Biological Chemistry, 2021)", "molecules": {"B1": {"name": "Psu: bacteriophage P4 capsid protein, natural Rho antagonist, ∼42-kDa dimer (protein)", "chain": "MESTALQQAFDTCQNNKAAWLQRKNELAAAEQEYLRLLSGEGRNVSRLDELRNIIEVRKWQVNQAAGRYIRSHEAVQHISIRDRLNDFMQQHGTALAAALAPELMGYSELTAIARNCAIQRATDALREALLSWLAKGEKINYSAQDSDILTTIGFRPDVASVDDSREKFTPAQNMIFSRKSAQLASRQSV"}}, "key": {"[1]": {"system": "Mycobacterium smegmatis mc^2155", "format": "cell-based"}, "[2]": {"system": "E. coli Rho", "conditions": "compared with peptide 33; ref [9]; cited from earlier work", "excerpt": "Next, we assayed the peptide-mediated inhibition of the in vitro transcription termination functions of the Rho. We used a linear DNA template where a trpt′ terminator is fused downstream of a strong T7A1 promoter. On this template, efficient transcription termination over a terminator zone is usually observed in the presence of Rho (Fig. 3D; ([16])). The amount of run-off transcripts at the end of this template gives the measure of Rho inhibition by the peptides. We observed that the amount of ..."}, "[3]": {"system": "Rho point mutants, R144E, R146E, and, E148R", "conditions": "cited from earlier work"}, "[4]": {"target": "T1, P167L Rho (Escherichia coli, UniProt P0AG30, P167L)", "format": "binding", "conditions": "Rho:ligand in μg: 1:6 (peptide 16), 1:4 (peptide 33), 1:3 (Psu); 1 mM ATP, pH 8.0, 37 °C, 20 min; SD of two or three measurements"}, "[5]": {"system": "pathogenic Rho proteins", "conditions": "ref [13]; cited from earlier work"}, "[6]": {"system": "Mycobacterium bovis BCG", "format": "cell-based"}, "[7]": {"system": "Rho-dependent termination (galEP3 reporter)", "assay": "in vivo Rho-dependent termination, galEP3 reporter, MacConkey-galactose plates", "format": "cell-based, Escherichia coli", "conditions": "MC4100 galEP3, MacConkey-galactose plates, overexpression"}, "[8]": {"system": "Rho proteins from pathogenic bacteria", "format": "biochemical", "conditions": "35 μM peptide 33, 50 nM Rho, E. coli RNAP stalled EC, trpt′"}, "[9]": {"system": "Rho-dependent termination (trac and trpt′ lacZ fusions)", "format": "cell-based, Escherichia coli", "conditions": "qRT-PCR, 2−ΔΔCt relative to empty vector; 100 μM IPTG (20 μM for Psu); at least three biological replicates"}, "[10]": {"system": "MG1655 gene expression", "format": "cell-based, Escherichia coli", "conditions": "qRT-PCR, relative to empty vector"}, "[11]": {"target": "WT Rho (Escherichia coli, UniProt P0AG30)", "sequence (P0AG30 whole entry)": "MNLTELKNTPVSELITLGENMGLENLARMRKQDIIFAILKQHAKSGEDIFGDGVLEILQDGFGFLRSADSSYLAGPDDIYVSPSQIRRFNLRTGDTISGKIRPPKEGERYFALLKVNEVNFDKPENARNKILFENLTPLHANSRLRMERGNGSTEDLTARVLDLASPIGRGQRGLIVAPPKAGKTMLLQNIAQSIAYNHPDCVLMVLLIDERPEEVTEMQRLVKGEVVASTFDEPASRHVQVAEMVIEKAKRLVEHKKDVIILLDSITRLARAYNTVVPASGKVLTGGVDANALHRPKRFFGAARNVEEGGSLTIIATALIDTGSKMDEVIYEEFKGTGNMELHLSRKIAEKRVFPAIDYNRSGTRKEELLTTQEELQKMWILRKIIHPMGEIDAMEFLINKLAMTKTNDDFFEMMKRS", "conditions": "earlier work; ref [11]; cited from earlier work"}, "[12]": {"system": "E. coli Rho", "conditions": "cited from earlier work"}, "[13]": {"system": "E. coli Rho", "assay": "Rho-mediated RNA release from stalled (roadblocked) elongation complex", "format": "biochemical, Escherichia coli", "conditions": "Fig. S4B"}, "[14]": {"system": "Rho-dependent termination (trpt′ and trac terminators, lacZ reporter)", "format": "cell-based, Escherichia coli", "conditions": "trpt′ and trac, LB-X-gal, induction by 50 μM IPTG"}, "[15]": {"target": "T1, P167L Rho", "conditions": "ref [11]; cited from earlier work"}}}
{"molecule": "B1", "values": [{"measurement": "growth phenotype upon streaking (in words)", "setting": "[1]", "value": "very sick phenotype"}, {"measurement": "transformants obtained (in words)", "setting": "[1]", "value": "fewer colonies than those obtained from the transformation with the empty vector"}, {"measurement": "in vitro Rho inhibition in termination assay (in words)", "setting": "[2]", "value": "A similar level of in vitro Rho inhibition"}, {"measurement": "binding of Rho mutants R144E, R146E, E148R (in words)", "setting": "[3]", "value": "did not bind to Psu"}, {"measurement": "Fraction of Rho associated (%)", "setting": "[4]", "value": "49 ± 5", "unit": "%"}, {"measurement": "inhibition of ATP hydrolysis of Salmonella and Vibrio Rho with poly(C) RNA (in words)", "setting": "[5]", "value": "too fast to be inhibited by Psu"}, {"measurement": "growth phenotype upon streaking (in words)", "setting": "[6]", "value": "very sick phenotype"}, {"measurement": "colour of colonies, galEP3 reporter (in words)", "setting": "[7]", "value": "appearance of red colonies"}, {"measurement": "inhibition of RNA release by pathogenic Rho proteins (in words)", "setting": "[8]", "value": "could inhibit the termination process by all the different Rho proteins"}, {"measurement": "enhancement of expression of Plac-trac-lacZ fusion", "setting": "[9]", "value": 28, "unit": "fold"}, {"measurement": "upregulation of tested genes (in words)", "setting": "[10]", "value": "highest level of upregulations of the tested genes"}, {"measurement": "in vitro stable complex with WT Rho (in words)", "setting": "[11]", "value": "failed to obtain a stable in vitro Rho–Psu complex with the WT Rho"}, {"measurement": "rate of RNA-dependent ATP hydrolysis of Rho (in words)", "setting": "[12]", "value": "reduced the rate of RNA-dependent ATP hydrolysis"}, {"measurement": "inhibition of Rho-induced RNA release from stalled EC (in words)", "setting": "[13]; Fig. 3E", "value": "significantly inhibited"}, {"measurement": "Frac. of RNA released (%)", "setting": "[13]; Psu 5.0, Rho 50 nM", "value": "12 ± 0.4", "unit": "%"}, {"measurement": "colour of colonies, lacZ reporter (in words)", "setting": "[14]", "value": "deep blue colonies"}, {"measurement": "in vitro stable complex with P167L Rho (in words)", "setting": "[15]", "value": "stable complex between Psu and Rho could form if a mutant Rho, P167L, was used"}]}
